Experimental data: PMC7948506

Key:
[1] = biological target: Glycine max (soybean) heme oxygenase-1 (GmHO-1) (Glycine max (soybean)); assay: ITC; 800 uM Fd in the syringe into 40 uM apo-GmHO-1 (no heme) in the cell; 25 °C; 20 mM Tris-HCl pH 7.0, 20 mM NaCl; one set of sites model; single measurement
[2] = biological target: Glycine max (soybean) heme oxygenase-1 (GmHO-1) (Glycine max (soybean)); assay: ITC; 800 uM Fd in the syringe into 40 uM holo-GmHO-1 (heme bound) in the cell; 25 °C; 20 mM Tris-HCl pH 7.0, 20 mM NaCl; one set of sites model; single measurement

## soybean ferredoxin (Fd) (natural protein)
[1]
  Kd: 14.7 µM
  dH: 3.3 kcal/mol
  stoichiometry N: 1
[2]
  Kd: 5.3 µM
  dH: 2.6 kcal/mol
  stoichiometry N: 1
